# The supplement of paper PMC7877785
# ± gives the uncertainty stated by the source.
# Assay: self-splicing fitness, log relative to wild type (ln ratio); higher = more splicing; Tetrahymena group I intron in knt gene, E. coli kanamycin selection, DiMSum; sequences stand for … in CUCUCU…GGAGGGAAAAGUUAUCAGGCAUGCACCUGGUAGCUAGUCUUUAAACCAAUAGAUUGCAUCGGUUUAAAAGGCAAGACCGUCAAAUUGCGGGAAAGGGGUCAACAGCCGUUCAGUACCAAGUCUCAGGGGAAACUUUGAGAUGGCCUUGCAAAGGGUAUGGUAAUAAGCUGACGGACAUGGUCCUAACCACGCAGCCAAGUCCUAAGUCAACAGAUCUUCUGUUGAUAUGGAUGCAGUUCACAGACUAAAUGUCGGUCGGGGAAGAUGUAUUCUUCUCAUAAGAUAUAGUCGGACCUCUCCUUAAUGGGAGCUAGCGGAUGAAGUGAUGCAACACUGGAGCCGCUGGGAACUAAUUUGUAUGCGAAAGUAUAUUGAUUAGUUUUGGAGUACUCGUGGUCG
# Summary of the method: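 Six replicate transformations of E. coli BL21(DE3) with a pET-22b(+) library were grown overnight at 37°C or 30°C. The library randomised all eight P1ex-region intron nucleotides, the intron lying in the knt kanamycin-resistance gene, and plates were LB agar with or without 25 μg/mL kanamycin plus 100 μg/mL carbenicillin, 50 μM IPTG and 0.2% rhamnose. Pooled colonies were amplicon-sequenced on an Illumina HiSeq 2500, and fitness is the DiMSum error-weighted combination of wild-type-normalised replicate fold changes, kanamycin versus none.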
Sequence,self-splicing fitness (ln) (30 °C),self-splicing fitness (ln) (37 °C)
CCAGAGCAAUAUUACGUAGC,-3.23 ± 0.19,-2.38 ± 0.26
CCAGAGCAAUAUUACGUCAC,-2.34 ± 0.3,–
CCAGAGCAAUAUUACGUCCA,-2.05 ± 0.33,-1.44 ± 0.35
CCAGAGCAAUAUUACGUCCG,-1.7 ± 0.12,0.0963 ± 0.14
CCAGAGCAAUAUUACGUGGA,-4.15 ± 0.23,-2.03 ± 0.16
CCAGAGCAAUAUUACGUUAC,-3.64 ± 0.46,-1.7 ± 0.34
CCAGAGCAAUAUUACGUUUC,-3.23 ± 0.22,-3.61 ± 0.31
CCAGAGCAAUAUUACGUUUU,-3.06 ± 0.18,-2.62 ± 0.21
CCAUAGCAAUAUUACGAACG,-0.593 ± 0.09,-0.0842 ± 0.11
CCAUAGCAAUAUUACGACAC,-2.94 ± 0.29,-1.99 ± 0.37
CCAUAGCAAUAUUACGAUGA,-0.628 ± 0.092,-0.23 ± 0.1
CCAUAGCAAUAUUACGCAAA,-1.93 ± 0.21,-2.15 ± 0.3
CCAUAGCAAUAUUACGCACC,-1 ± 0.34,–
CCAUAGCAAUAUUACGCCCU,-2.8 ± 0.29,-2.84 ± 0.39
CCAUAGCAAUAUUACGCGAG,-2.77 ± 0.16,-1.22 ± 0.13
CCAUAGCAAUAUUACGCUAC,-4.24 ± 0.28,-3.23 ± 0.32
CCAUAGCAAUAUUACGGCUG,-3.05 ± 0.15,-1.62 ± 0.14
CCAUAGCAAUAUUACGGGGC,-2.41 ± 0.15,-2.95 ± 0.29
CCAUAGCAAUAUUACGGGGU,-3.73 ± 0.18,-2.46 ± 0.17
CCAUAGCAAUAUUACGGGUA,-3.25 ± 0.27,-2.87 ± 0.27
CCAUAGCAAUAUUACGGUAU,-3.54 ± 0.24,-1.34 ± 0.19
CCAUAGCAAUAUUACGGUUA,-3.57 ± 0.29,-2.73 ± 0.21
CCAUAGCAAUAUUACGUAAU,-3.14 ± 0.15,-3.15 ± 0.23
CCAUAGCAAUAUUACGUAGC,-2.52 ± 0.21,-2.05 ± 0.47
CCAUAGCAAUAUUACGUCUU,-3.12 ± 0.15,-2.56 ± 0.17

Sequence,self-splicing fitness (ln) (30 °C),self-splicing fitness (ln) (37 °C)
CCAUAGCAAUAUUACGUGUG,-2.23 ± 0.09,-1.07 ± 0.08
CCCAAGCAAUAUUACGAGAG,-2.99 ± 0.079,-1.93 ± 0.079
CCCAAGCAAUAUUACGAGUG,-2.61 ± 0.16,-2.94 ± 0.17
CCCAAGCAAUAUUACGAUCA,-3.67 ± 0.26,-2.57 ± 0.16
CCCAAGCAAUAUUACGAUCG,-3.46 ± 0.19,-2.93 ± 0.19
CCCAAGCAAUAUUACGAUGG,-2.89 ± 0.13,-1.99 ± 0.13
CCCAAGCAAUAUUACGCAUG,-3.29 ± 0.2,-2.34 ± 0.22
CCCAAGCAAUAUUACGCCGG,-3.22 ± 0.29,-2.35 ± 0.32
CCCAAGCAAUAUUACGCGUG,-3.31 ± 0.12,-3.1 ± 0.18
CCCAAGCAAUAUUACGGAGA,–,-1.03 ± 0.17
CCCAAGCAAUAUUACGGCAU,-3.63 ± 0.16,-2.84 ± 0.17
CCCAAGCAAUAUUACGGGGC,-4.7 ± 0.39,-3.08 ± 0.27
CCCAAGCAAUAUUACGGUCG,-2.3 ± 0.094,-0.827 ± 0.094
CCCAAGCAAUAUUACGUAAU,-4.69 ± 0.17,-2.97 ± 0.19
CCCAAGCAAUAUUACGUCCG,-3.6 ± 0.43,-2.45 ± 0.3
CCCAAGCAAUAUUACGUGAU,-3.67 ± 0.13,-2.45 ± 0.16
CCCAAGCAAUAUUACGUUUU,-3.95 ± 0.18,-3.26 ± 0.2
CCCCAGCAAUAUUACGACCA,-2.81 ± 0.18,-1.43 ± 0.16
CCCCAGCAAUAUUACGAGAA,-3.4 ± 0.29,-2.37 ± 0.23
CCCCAGCAAUAUUACGAGCU,-3.85 ± 0.19,-2.85 ± 0.2
CCCCAGCAAUAUUACGAUAA,–,-1.49 ± 0.22
CCCCAGCAAUAUUACGAUCG,-2.85 ± 0.13,-0.917 ± 0.14
CCCCAGCAAUAUUACGCCAC,-3.09 ± 0.13,-0.923 ± 0.16
CCCCAGCAAUAUUACGCCCA,-2.11 ± 0.26,-1.37 ± 0.25
